Measurements published in patent US20200262877A1, “ION CHANNEL-BINDING PEPTIDES AND METHODS OF USE THEREOF” (priority 2017, published 2020).

Legend:
[1] = target: T1, Nav1.7 (Homo sapiens, UniProt Q15858); test: cell-based; type: cell-based; conditions: 100% = no change; for Activity of Nav1.7 with peptide, expressed as a percentage of the reference compound: peptide at 0.2 μM; for Activity of Nav1.7 with peptide (percentage of the reference compound): peptide at 20 μM
T1 construct: host or cells: HEK293 or CHO

[2] = target: T2, Kir2.1 (Homo sapiens, UniProt P63252); test: Ion channel panel (IonWorks Barracuda): Kir2.1; type: cell-based; conditions: 100% = no change, <100% = inhibition
T2 construct: host or cells: HEK293 or CHO
Procedure, shortened: (§1)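 Peptides were tested in duplicate at final 20 μM and 200 nM, with concentration set by amino acid analysis, in HEPES-buffered saline. They were applied for at least 5 min to HEK293 or CHO cells transfected with each channel. Currents were expressed as % inhibition, 1-(Ipeptide/Icontrol)×100, or % activation, Ipeptide/Icontrol×100, against a channel-matched reference compound.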

[3] = target: T3, Kv1.2 (Homo sapiens, UniProt P16389); test: cell-based; type: cell-based; conditions: 100% = no change, <100% = inhibition
T3 construct: host or cells: HEK293 or CHO
Procedure, shortened: as §1

[4] = target: T4, Kv1.3 (Homo sapiens, UniProt P22001); test: cell-based; type: cell-based; conditions: 100% = no change, <100% = inhibition
T4 construct: host or cells: HEK293 or CHO
Procedure, shortened: as §1

[5] = target: T5, Kv1.1 (Homo sapiens, UniProt Q09470); test: cell-based; type: cell-based; conditions: 100% = no change, <100% = inhibition
T5 construct: host or cells: HEK293 or CHO
Procedure, shortened: as §1

[6] = target: T6, TRPA1 (Homo sapiens, UniProt O75762); test: Ion channel panel (IonWorks Barracuda): TRPA1; type: cell-based; conditions: 100% = no change, <100% = inhibition
T6 construct: host or cells: HEK293 or CHO
Procedure, shortened: as §1

[7] = target: T7, 5HT3a (Homo sapiens, UniProt P46098); test: Ion channel panel (IonWorks Barracuda): 5HT3a; type: cell-based
T7 construct: host or cells: HEK293 or CHO
T7 sequence (P46098 whole entry, looked up): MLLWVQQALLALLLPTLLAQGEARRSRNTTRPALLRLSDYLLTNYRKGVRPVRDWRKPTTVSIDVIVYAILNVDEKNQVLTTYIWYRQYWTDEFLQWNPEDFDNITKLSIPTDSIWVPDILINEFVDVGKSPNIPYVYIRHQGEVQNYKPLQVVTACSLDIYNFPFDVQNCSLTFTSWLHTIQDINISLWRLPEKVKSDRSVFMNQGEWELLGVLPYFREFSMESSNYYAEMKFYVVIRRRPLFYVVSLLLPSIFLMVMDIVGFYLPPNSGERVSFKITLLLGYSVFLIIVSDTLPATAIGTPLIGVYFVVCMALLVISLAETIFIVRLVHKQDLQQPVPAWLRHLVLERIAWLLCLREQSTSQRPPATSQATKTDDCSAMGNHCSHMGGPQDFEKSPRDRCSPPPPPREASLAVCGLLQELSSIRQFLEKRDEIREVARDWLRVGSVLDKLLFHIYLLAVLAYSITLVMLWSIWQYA
Procedure, shortened: as §1

[8] = target: T8, TRPV1 (Homo sapiens, UniProt Q8NER1); test: Ion channel panel (IonWorks Barracuda): TRPV1; type: cell-based; conditions: 100% = no change, <100% = inhibition
T8 construct: host or cells: HEK293 or CHO
Procedure, shortened: as §1

[9] = target: T9, Kv2.1 (Homo sapiens, UniProt Q14721); test: cell-based; conditions: 100% = no change, <100% = inhibition
T9 construct: host or cells: HEK293 or CHO
Procedure, shortened: as §1

[10] = target: T10, Cav2.1 (Homo sapiens, UniProt O00555); test: cell-based; conditions: 100% = no change, <100% = inhibition
T10 construct: host or cells: HEK293 or CHO
Procedure, shortened: as §1

[11] = target: T11, Cav2.2 (Homo sapiens, UniProt Q00975); test: cell-based; conditions: 100% = no change, <100% = inhibition
T11 construct: host or cells: HEK293 or CHO
Procedure, shortened: as §1

[12] = target: T12, α4β2 (Homo sapiens, UniProt P17787+P43681); test: Ion channel panel (IonWorks Barracuda): α4β2; type: cell-based; conditions: 100% = no change, <100% = inhibition
T12 construct: host or cells: HEK293 or CHO
Procedure, shortened: as §1

[13] = target: T13, NR2B (Homo sapiens, UniProt Q13224); test: Ion channel panel (IonWorks Barracuda): NR2B; type: cell-based; conditions: 100% = no change, <100% = inhibition
T13 construct: host or cells: HEK293 or CHO
Procedure, shortened: as §1

[14] = target: T14, α3β4 (Homo sapiens, UniProt P30926+P32297); test: Ion channel panel (IonWorks Barracuda): α3β4; type: cell-based; conditions: 100% = no change, <100% = inhibition
T14 construct: host or cells: HEK293 or CHO
Procedure, shortened: as §1

[15] = target: Nav1.5 (Homo sapiens, UniProt Q14524); test: in vitro; conditions: 100% = no change; for Activity of Nav1.5 with peptide, expressed as a percentage of the reference compound: peptide at 0.2 μM; for Activity of Nav1.5 with peptide (percentage of the reference compound): peptide at 20 μM
Procedure, shortened: as §1

[16] = target: hERG (Homo sapiens, UniProt Q12809); test: in vitro; conditions: 100% = no change, <100% = inhibition
Procedure, shortened: as §1

[17] = target: T15, NR2A (Homo sapiens, UniProt Q12879); test: Ion channel panel (IonWorks Barracuda): NR2A; type: cell-based; conditions: 100% = no change, <100% = inhibition
T15 construct: host or cells: HEK293 or CHO
Procedure, shortened: as §1

[18] = tested on: GABA; test: Ion channel panel (IonWorks Barracuda): GABA; type: cell-based; conditions: 100% = no change, <100% = inhibition
Procedure, shortened: as §1

[19] = first of two Nav1.7 columns (probably TP1)
[20] = second of two Nav1.7 columns (probably TP2)
[21] = first of two Nav1.5 columns (probably TP1)
[22] = second of two Nav1.5 columns (probably TP2)

Chain of Nav1.5 (Q14524 whole entry): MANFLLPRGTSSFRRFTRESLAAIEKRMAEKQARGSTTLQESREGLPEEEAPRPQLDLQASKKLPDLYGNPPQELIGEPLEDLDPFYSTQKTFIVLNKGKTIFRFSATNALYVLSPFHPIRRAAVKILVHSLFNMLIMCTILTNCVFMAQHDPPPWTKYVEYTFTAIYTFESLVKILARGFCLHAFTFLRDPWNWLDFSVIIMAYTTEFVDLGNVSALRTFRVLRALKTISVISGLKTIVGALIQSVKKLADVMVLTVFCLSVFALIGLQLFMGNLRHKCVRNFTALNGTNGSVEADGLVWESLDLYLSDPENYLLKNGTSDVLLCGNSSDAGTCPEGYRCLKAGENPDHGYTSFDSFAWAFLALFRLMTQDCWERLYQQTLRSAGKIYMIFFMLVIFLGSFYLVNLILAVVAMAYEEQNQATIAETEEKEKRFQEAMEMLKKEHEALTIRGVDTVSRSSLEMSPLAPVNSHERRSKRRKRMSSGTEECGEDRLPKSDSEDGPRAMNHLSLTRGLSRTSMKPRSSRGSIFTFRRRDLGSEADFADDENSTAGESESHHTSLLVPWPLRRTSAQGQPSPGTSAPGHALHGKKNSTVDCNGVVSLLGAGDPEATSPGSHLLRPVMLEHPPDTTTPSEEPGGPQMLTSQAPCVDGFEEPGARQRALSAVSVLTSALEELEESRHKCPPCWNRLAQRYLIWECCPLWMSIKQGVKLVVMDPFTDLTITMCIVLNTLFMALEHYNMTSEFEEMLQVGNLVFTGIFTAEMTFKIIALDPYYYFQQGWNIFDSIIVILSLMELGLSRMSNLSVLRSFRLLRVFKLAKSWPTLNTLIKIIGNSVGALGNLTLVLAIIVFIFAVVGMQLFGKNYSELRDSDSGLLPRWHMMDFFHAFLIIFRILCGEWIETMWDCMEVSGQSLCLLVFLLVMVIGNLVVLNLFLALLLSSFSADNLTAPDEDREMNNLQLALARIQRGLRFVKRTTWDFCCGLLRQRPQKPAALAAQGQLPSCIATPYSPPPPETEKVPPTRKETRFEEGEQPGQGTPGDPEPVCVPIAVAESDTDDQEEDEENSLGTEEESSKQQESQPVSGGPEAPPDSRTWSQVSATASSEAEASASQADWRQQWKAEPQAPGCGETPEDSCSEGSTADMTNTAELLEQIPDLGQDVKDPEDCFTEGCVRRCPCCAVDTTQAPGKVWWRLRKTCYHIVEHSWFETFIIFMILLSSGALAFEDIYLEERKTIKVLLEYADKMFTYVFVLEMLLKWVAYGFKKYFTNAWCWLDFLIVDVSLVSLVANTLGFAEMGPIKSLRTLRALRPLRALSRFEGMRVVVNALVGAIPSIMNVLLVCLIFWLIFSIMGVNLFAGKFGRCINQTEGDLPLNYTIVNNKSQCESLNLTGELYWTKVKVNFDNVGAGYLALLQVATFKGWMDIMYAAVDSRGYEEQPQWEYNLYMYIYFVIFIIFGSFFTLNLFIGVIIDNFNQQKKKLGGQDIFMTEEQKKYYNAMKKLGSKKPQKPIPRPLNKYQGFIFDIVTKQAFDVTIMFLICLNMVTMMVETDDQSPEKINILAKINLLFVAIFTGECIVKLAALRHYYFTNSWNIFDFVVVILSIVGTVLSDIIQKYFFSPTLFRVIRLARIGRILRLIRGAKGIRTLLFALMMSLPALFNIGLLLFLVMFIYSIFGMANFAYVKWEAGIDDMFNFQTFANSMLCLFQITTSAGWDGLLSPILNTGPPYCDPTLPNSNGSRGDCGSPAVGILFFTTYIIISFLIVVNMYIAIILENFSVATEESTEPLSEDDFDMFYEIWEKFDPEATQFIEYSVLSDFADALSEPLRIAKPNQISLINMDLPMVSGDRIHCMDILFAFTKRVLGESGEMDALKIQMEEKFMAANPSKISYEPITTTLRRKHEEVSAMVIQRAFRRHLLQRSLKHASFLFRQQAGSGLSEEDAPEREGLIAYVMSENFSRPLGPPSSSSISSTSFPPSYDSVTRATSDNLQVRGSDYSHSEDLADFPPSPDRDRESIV
T1 sequence (Q15858 whole entry): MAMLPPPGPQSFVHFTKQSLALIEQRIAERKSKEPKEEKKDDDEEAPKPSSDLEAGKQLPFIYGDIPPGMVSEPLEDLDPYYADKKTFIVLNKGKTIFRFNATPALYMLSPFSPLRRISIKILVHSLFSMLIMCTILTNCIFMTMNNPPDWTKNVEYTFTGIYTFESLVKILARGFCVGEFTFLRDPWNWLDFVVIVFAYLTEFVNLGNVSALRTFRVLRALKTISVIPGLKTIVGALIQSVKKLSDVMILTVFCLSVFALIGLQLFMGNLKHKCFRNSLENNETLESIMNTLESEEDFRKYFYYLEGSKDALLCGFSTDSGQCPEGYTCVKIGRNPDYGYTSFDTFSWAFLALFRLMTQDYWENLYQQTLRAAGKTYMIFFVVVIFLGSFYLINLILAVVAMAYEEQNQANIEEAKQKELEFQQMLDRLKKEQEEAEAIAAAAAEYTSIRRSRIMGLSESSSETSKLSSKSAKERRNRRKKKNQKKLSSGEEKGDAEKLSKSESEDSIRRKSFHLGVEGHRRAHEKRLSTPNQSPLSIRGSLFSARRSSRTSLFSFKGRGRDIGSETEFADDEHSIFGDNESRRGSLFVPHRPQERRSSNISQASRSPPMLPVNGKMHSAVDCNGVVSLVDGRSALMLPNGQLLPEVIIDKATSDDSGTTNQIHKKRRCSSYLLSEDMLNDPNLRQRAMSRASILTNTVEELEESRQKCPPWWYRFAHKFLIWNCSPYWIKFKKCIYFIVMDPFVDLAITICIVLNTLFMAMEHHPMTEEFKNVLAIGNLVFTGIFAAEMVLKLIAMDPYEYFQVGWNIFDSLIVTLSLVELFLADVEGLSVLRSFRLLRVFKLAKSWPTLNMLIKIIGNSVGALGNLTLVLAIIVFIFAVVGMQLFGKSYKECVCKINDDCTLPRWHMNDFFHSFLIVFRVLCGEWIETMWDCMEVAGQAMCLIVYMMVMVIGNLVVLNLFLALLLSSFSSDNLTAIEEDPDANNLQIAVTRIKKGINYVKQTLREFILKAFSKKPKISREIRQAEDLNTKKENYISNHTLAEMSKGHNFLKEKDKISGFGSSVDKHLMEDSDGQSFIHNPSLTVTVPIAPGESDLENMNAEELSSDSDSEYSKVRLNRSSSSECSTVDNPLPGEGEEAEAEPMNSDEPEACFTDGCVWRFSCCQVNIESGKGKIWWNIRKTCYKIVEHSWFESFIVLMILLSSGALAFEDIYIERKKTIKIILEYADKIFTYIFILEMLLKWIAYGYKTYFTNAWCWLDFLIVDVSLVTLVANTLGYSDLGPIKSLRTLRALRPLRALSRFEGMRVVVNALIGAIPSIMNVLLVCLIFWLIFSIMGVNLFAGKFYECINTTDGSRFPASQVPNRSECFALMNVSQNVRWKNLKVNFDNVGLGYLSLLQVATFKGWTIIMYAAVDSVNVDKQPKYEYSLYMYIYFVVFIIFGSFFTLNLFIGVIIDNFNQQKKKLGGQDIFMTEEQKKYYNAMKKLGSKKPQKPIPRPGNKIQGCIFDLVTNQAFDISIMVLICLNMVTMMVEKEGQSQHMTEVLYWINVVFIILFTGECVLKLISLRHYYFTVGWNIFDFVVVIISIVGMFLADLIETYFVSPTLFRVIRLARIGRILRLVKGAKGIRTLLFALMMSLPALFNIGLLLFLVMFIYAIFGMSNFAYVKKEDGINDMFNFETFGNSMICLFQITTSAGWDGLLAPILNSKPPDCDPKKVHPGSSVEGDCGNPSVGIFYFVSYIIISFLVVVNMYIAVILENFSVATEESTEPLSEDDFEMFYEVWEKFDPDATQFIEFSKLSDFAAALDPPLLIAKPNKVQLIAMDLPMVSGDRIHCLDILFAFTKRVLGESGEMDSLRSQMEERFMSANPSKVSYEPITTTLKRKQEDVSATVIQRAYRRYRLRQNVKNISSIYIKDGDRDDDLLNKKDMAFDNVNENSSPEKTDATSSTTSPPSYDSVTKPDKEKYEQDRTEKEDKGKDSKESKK
T6 sequence (O75762 whole entry): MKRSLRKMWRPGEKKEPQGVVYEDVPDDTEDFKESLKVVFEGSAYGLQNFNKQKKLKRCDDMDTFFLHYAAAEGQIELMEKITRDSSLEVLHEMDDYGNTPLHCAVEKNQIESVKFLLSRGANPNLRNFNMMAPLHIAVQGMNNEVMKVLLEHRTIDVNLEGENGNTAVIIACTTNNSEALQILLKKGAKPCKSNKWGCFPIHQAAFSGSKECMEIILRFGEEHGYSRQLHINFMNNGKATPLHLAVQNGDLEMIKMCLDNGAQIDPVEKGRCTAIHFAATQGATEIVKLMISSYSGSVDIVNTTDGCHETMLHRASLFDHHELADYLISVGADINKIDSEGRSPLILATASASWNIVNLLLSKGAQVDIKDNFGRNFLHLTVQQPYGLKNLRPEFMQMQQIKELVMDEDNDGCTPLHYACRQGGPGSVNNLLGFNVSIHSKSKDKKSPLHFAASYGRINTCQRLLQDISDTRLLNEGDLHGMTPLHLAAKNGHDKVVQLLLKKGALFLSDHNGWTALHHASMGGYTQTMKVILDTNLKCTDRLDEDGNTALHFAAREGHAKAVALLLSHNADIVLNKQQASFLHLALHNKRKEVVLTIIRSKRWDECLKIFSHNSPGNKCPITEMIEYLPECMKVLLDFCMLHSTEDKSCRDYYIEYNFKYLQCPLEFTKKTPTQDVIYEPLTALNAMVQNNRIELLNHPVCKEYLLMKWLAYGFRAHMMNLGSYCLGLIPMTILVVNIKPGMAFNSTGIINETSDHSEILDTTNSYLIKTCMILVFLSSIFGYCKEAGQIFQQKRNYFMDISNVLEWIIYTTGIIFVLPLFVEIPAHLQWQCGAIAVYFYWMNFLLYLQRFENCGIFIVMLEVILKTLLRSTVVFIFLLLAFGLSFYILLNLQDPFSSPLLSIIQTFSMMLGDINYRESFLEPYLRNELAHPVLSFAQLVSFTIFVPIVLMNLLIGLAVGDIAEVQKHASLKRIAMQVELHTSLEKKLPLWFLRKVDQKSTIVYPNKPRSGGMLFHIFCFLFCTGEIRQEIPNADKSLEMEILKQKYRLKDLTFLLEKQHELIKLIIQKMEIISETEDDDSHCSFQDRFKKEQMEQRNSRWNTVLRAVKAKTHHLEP

Substance: 30 (GSQVSTNKKCSNTSQCYKTCEKVVGVAAGKCMNGKCICYP) [compound 30]
- Activity of Nav1.7 with peptide, expressed as a percentage of the reference compound [1, 19]: 103%
- Activity of Nav1.7 with peptide, expressed as a percentage of the reference compound [1, 20]: 125%
- Activity of Nav1.7 with peptide (percentage of the reference compound) [1, 19]: 84%
- Activity of Nav1.7 with peptide (percentage of the reference compound) [1, 20]: 54%
- Activity of Kir2.1 with peptide, expressed as a percentage of the reference compound ([2]; peptide at 0.2 μM): 102%
- Activity of Kir2.1 with peptide (percentage of the reference compound) ([2]; peptide at 20 μM): 93%
- Activity of Kv1.2 with peptide, expressed as a percentage of the reference compound ([3]; peptide at 0.2 μM): 110%
- Activity of Kv1.2 with peptide (percentage of the reference compound) ([3]; peptide at 20 μM): 92%
- Activity of Kv1.3 with peptide, expressed as a percentage of the reference compound ([4]; peptide at 0.2 μM): 89%
- Activity of Kv1.3 with peptide (percentage of the reference compound) ([4]; peptide at 20 μM): 71%
- Activity of Kv1.1 with peptide, expressed as a percentage of the reference compound ([5]; peptide at 0.2 μM): 98%
- Activity of Kv1.1 with peptide (percentage of the reference compound) ([5]; peptide at 20 μM): 102%
- Activity of TRPA1 with peptide, expressed as a percentage of the reference compound ([6]; peptide at 0.2 μM): 118%
- Activity of TRPA1 with peptide (percentage of the reference compound) ([6]; peptide at 20 μM): 111%
- Activity of 5HT3a with peptide (percentage of the reference compound) [7]: 91%
- Activity of 5HT3a with peptide, expressed as a percentage of the reference compound [7]: 71%
- Activity of TRPV1 with peptide, expressed as a percentage of the reference compound ([8]; peptide at 0.2 μM): 107%
- Activity of TRPV1 with peptide (percentage of the reference compound) ([8]; peptide at 20 μM): 84%
- Activity of Kv2.1 with peptide, expressed as a percentage of the reference compound ([9]; peptide at 0.2 μM): 107%
- Activity of Kv2.1 with peptide (percentage of the reference compound) ([9]; peptide at 20 μM): 106%
- Activity of Cav2.1 with peptide, expressed as a percentage of the reference compound ([10]; peptide at 0.2 μM): 111%
- Activity of Cav2.1 with peptide (percentage of the reference compound) ([10]; peptide at 20 μM): 103%
- Activity of Cav2.2 with peptide, expressed as a percentage of the reference compound ([11]; peptide at 0.2 μM): 96%
- Activity of Cav2.2 with peptide (percentage of the reference compound) ([11]; peptide at 20 μM): 101%
- Activity of a4b2 with peptide, expressed as a percentage of the reference compound ([12]; peptide at 0.2 μM): 89%
- Activity of a4b2 with peptide (percentage of the reference compound) ([12]; peptide at 20 μM): 92%
- Activity of NR2B with peptide, expressed as a percentage of the reference compound ([13]; peptide at 0.2 μM): 92%
- Activity of NR2B with peptide (percentage of the reference compound) ([13]; peptide at 20 μM): 88%
- Activity of a3b4 with peptide, expressed as a percentage of the reference compound ([14]; peptide at 0.2 μM): 91%
- Activity of a3b4 with peptide (percentage of the reference compound) ([14]; peptide at 20 μM): 101%
- Activity of Nav1.5 with peptide, expressed as a percentage of the reference compound [15, 21]: 105%
- Activity of Nav1.5 with peptide, expressed as a percentage of the reference compound [15, 22]: 102%
- Activity of Nav1.5 with peptide (percentage of the reference compound) [15, 21]: 94%
- Activity of Nav1.5 with peptide (percentage of the reference compound) [15, 22]: 96%
- Activity of hERG with peptide, expressed as a percentage of the reference compound ([16]; peptide at 0.2 μM): 95%
- Activity of hERG with peptide (percentage of the reference compound) ([16]; peptide at 20 μM): 95%
- Activity of NR2A with peptide, expressed as a percentage of the reference compound ([17]; peptide at 0.2 μM): 111%
- Activity of NR2A with peptide (percentage of the reference compound) ([17]; peptide at 20 μM): 98%
- Activity of GABA with peptide, expressed as a percentage of the reference compound ([18]; peptide at 0.2 μM): 102%
- Activity of GABA with peptide (percentage of the reference compound) ([18]; peptide at 20 μM): 114%
